B1: RAD51 (parent)
chain: APKKELINIKGISEAKADKILAEA

Variants of: B1
Test: protein stability index of a GFP-peptide fusion (GPS, HEK-293T) (PSI 1-6); higher = more stable
Conditions: c terminus: a fixed tail appended
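Note: lentivirally expressed fusions sorted by FACS into six bins by GFP to DsRed ratio, PSI derived from sequencing read proportions per bin multiplied by bin number.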

**Q.** With APKKELKNIKGISEAKADKILAEA [I7K] as the variant, how does the protein stability index read?
**A.** 4.78

**Q.** Which protein stability index does the source give for APKKELRNIKGISEAKADKILAEA [I7R] here?
**A.** 4.59

**Q.** For APKKELANIKGISEAKADKILAEA [I7A], which protein stability index is on record?
**A.** 5.13

**Q.** For APKKELLNIKGISEAKADKILAEA [I7L], which protein stability index is on record?
**A.** 5.31

**Q.** With APKKELWNIKGISEAKADKILAEA [I7W] as the variant, how does the protein stability index read?
**A.** 4.49

**Q.** For APKKELYNIKGISEAKADKILAEA [I7Y], which protein stability index is on record?
**A.** 4.73

**Q.** With APKKELINIKGISEAKADKIYAEA [L21Y] as the variant, how does the protein stability index read?
**A.** 4.58

**Q.** With APKKELINIKGISEAKADKICAEA [L21C] as the variant, how does the protein stability index read?
**A.** 5.15

**Q.** For APKKELINIKGISEAKADKIFAEA [L21F], which protein stability index is on record?
**A.** 4.13

**Q.** For APKKELINIKGISEAKADKISAEA [L21S], which protein stability index is on record?
**A.** 5.46

**Q.** For APKKELINIKGISEAKADKIDAEA [L21D], which protein stability index is on record?
**A.** 5.58

**Q.** With APKKELINIKGISEAKADKIRAEA [L21R] as the variant, how does the protein stability index read?
**A.** 4.96

**Q.** For APKKELINIKGISEAKADKILKEA [A22K], which protein stability index is on record?
**A.** 5.24

**Q.** For APKKELINIKGISEAKADKILVEA [A22V], which protein stability index is on record?
**A.** 4.79

**Q.** Which protein stability index does the source give for APKKELINIKGISEAKADKILWEA [A22W] here?
**A.** 3.58

**Q.** Which protein stability index does the source give for APKKELINIKGISEAKADKILPEA [A22P] here?
**A.** 4.83

**Q.** For APKKELINIKGISEAKADKILFEA [A22F], which protein stability index is on record?
**A.** 3.98

**Q.** For APKKELINIKGISEAKADKILREA [A22R], which protein stability index is on record?
**A.** 4.84

**Q.** With APKKELINIKGISEAKADKILTEA [A22T] as the variant, how does the protein stability index read?
**A.** 3.9

**Q.** With APKKELINIKGISEAKADKILQEA [A22Q] as the variant, how does the protein stability index read?
**A.** 5.15

**Q.** Which protein stability index does the source give for APKKELINIKGISEAKADKILGEA [A22G] here?
**A.** 4.62

**Q.** With APKKELINIKGISEAKADKILNEA [A22N] as the variant, how does the protein stability index read?
**A.** 4.59

**Q.** For APKKELINIKGISEAKADKILCEA [A22C], which protein stability index is on record?
**A.** 4.25

**Q.** Which protein stability index does the source give for APKKELINIKGISEAKADKILEEA [A22E] here?
**A.** 5.28

**Q.** For APKKELINIKGLSEAKADKILAEA [I12L], which protein stability index is on record?
**A.** 4.64

**Q.** With APKKELINIKGNSEAKADKILAEA [I12N] as the variant, how does the protein stability index read?
**A.** 5.06

**Q.** Which protein stability index does the source give for APKKELINIKGASEAKADKILAEA [I12A] here?
**A.** 5.28

**Q.** For APKKELINIKGCSEAKADKILAEA [I12C], which protein stability index is on record?
**A.** 4.96

**Q.** For APKKELINIKGDSEAKADKILAEA [I12D], which protein stability index is on record?
**A.** 5.91

**Q.** Which protein stability index does the source give for APKKELINIKGHSEAKADKILAEA [I12H] here?
**A.** 5.44

**Q.** For APKKELINIKGFSEAKADKILAEA [I12F], which protein stability index is on record?
**A.** 4.33

**Q.** With APKKELINIKGSSEAKADKILAEA [I12S] as the variant, how does the protein stability index read?
**A.** 5.27

**Q.** For APKKELINIKGKSEAKADKILAEA [I12K], which protein stability index is on record?
**A.** 5.36

**Q.** For APKKELINIKGMSEAKADKILAEA [I12M], which protein stability index is on record?
**A.** 4.98

**Q.** Which protein stability index does the source give for APKKENINIKGISEAKADKILAEA [L6N] here?
**A.** 4.94

**Q.** For APKKEYINIKGISEAKADKILAEA [L6Y], which protein stability index is on record?
**A.** 4.46

**Q.** With APKKECINIKGISEAKADKILAEA [L6C] as the variant, how does the protein stability index read?
**A.** 4.97

**Q.** For APKKEEINIKGISEAKADKILAEA [L6E], which protein stability index is on record?
**A.** 5.28

**Q.** With APKKEVINIKGISEAKADKILAEA [L6V] as the variant, how does the protein stability index read?
**A.** 5.2

**Q.** Which protein stability index does the source give for APKKEIINIKGISEAKADKILAEA [L6I] here?
**A.** 4.4

**Q.** With APKKEGINIKGISEAKADKILAEA [L6G] as the variant, how does the protein stability index read?
**A.** 4.73

**Q.** Which protein stability index does the source give for APKKEDINIKGISEAKADKILAEA [L6D] here?
**A.** 5.45

**Q.** For APKKEFINIKGISEAKADKILAEA [L6F], which protein stability index is on record?
**A.** 4.4

**Q.** With APKKELINIKGISEAKADKILALA [E23L] as the variant, how does the protein stability index read?
**A.** 3.43

**Q.** For APKKELINIKGISEAKADKILAFA [E23F], which protein stability index is on record?
**A.** 3.46

**Q.** For APKKELINIKGISEAKADKILANA [E23N], which protein stability index is on record?
**A.** 4.58

**Q.** With APKKELINIKGISEAKADKILAHA [E23H] as the variant, how does the protein stability index read?
**A.** 3.85

**Q.** For APKKELINIKGISEAKADKILADA [E23D], which protein stability index is on record?
**A.** 4.96

**Q.** Which protein stability index does the source give for APKKELINIKGISEAKADKILAQA [E23Q] here?
**A.** 4.26

**Q.** With APKKELINIKGISEAKADKILAVA [E23V] as the variant, how does the protein stability index read?
**A.** 3.73

**Q.** With APKKELINIKGISEAKADKILAIA [E23I] as the variant, how does the protein stability index read?
**A.** 3.36

**Q.** With APKKELINIKGISEAKADKILAWA [E23W] as the variant, how does the protein stability index read?
**A.** 3.02

**Q.** For APKKELINIKGISEAKADKILAPA [E23P], which protein stability index is on record?
**A.** 4.34

**Q.** With APTKELINIKGISEAKADKILAEA [K3T] as the variant, how does the protein stability index read?
**A.** 4.97

**Q.** With APDKELINIKGISEAKADKILAEA [K3D] as the variant, how does the protein stability index read?
**A.** 4.71

**Q.** For APCKELINIKGISEAKADKILAEA [K3C], which protein stability index is on record?
**A.** 4.28

**Q.** With APWKELINIKGISEAKADKILAEA [K3W] as the variant, how does the protein stability index read?
**A.** 3.81

**Q.** With APNKELINIKGISEAKADKILAEA [K3N] as the variant, how does the protein stability index read?
**A.** 4.58

**Q.** For APHKELINIKGISEAKADKILAEA [K3H], which protein stability index is on record?
**A.** 4.87

**Q.** With APQKELINIKGISEAKADKILAEA [K3Q] as the variant, how does the protein stability index read?
**A.** 4.81

**Q.** With APEKELINIKGISEAKADKILAEA [K3E] as the variant, how does the protein stability index read?
**A.** 4.94

**Q.** With APKKELINIKGISWAKADKILAEA [E14W] as the variant, how does the protein stability index read?
**A.** 3.89

**Q.** Which protein stability index does the source give for APKKELINIKGISAAKADKILAEA [E14A] here?
**A.** 4.4

**Q.** For APKKELINIKGISSAKADKILAEA [E14S], which protein stability index is on record?
**A.** 4.23

**Q.** With APKKELINIKGISIAKADKILAEA [E14I] as the variant, how does the protein stability index read?
**A.** 3.68

**Q.** For APKKELINIKGISNAKADKILAEA [E14N], which protein stability index is on record?
**A.** 4.84

**Q.** For APKKELINIKGISPAKADKILAEA [E14P], which protein stability index is on record?
**A.** 4.96

**Q.** Which protein stability index does the source give for APKKELINIKGIMEAKADKILAEA [S13M] here?
**A.** 4.56

**Q.** Which protein stability index does the source give for APKKELINIKGIKEAKADKILAEA [S13K] here?
**A.** 4.7

**Q.** With APKKELINIKGIHEAKADKILAEA [S13H] as the variant, how does the protein stability index read?
**A.** 5.38

**Q.** With APKKELINIKGIIEAKADKILAEA [S13I] as the variant, how does the protein stability index read?
**A.** 3.86

**Q.** With APKKELINIKGICEAKADKILAEA [S13C] as the variant, how does the protein stability index read?
**A.** 4.43

**Q.** With APKKELINIKGINEAKADKILAEA [S13N] as the variant, how does the protein stability index read?
**A.** 4.65

**Q.** For APKKELINIKGIDEAKADKILAEA [S13D], which protein stability index is on record?
**A.** 5.12

**Q.** For APKKELINIKGIREAKADKILAEA [S13R], which protein stability index is on record?
**A.** 4.36

**Q.** For APKKELINIKGISEVKADKILAEA [A15V], which protein stability index is on record?
**A.** 4.95

**Q.** For APKKELINIKGISEPKADKILAEA [A15P], which protein stability index is on record?
**A.** 4.41

**Q.** With APKKELINIKGISERKADKILAEA [A15R] as the variant, how does the protein stability index read?
**A.** 4.4

**Q.** Which protein stability index does the source give for APKKELINIKGISEDKADKILAEA [A15D] here?
**A.** 4.64

**Q.** Which protein stability index does the source give for APKKELINIKGISEEKADKILAEA [A15E] here?
**A.** 5.25

**Q.** With APKKELINIKGISECKADKILAEA [A15C] as the variant, how does the protein stability index read?
**A.** 4.63

**Q.** Which protein stability index does the source give for APKKELINIKGISEMKADKILAEA [A15M] here?
**A.** 4.41

**Q.** With APKKELINIKGISELKADKILAEA [A15L] as the variant, how does the protein stability index read?
**A.** 4.27

**Q.** With APKKELINIKGISEHKADKILAEA [A15H] as the variant, how does the protein stability index read?
**A.** 4.18

**Q.** Which protein stability index does the source give for APKKELINIKGISEQKADKILAEA [A15Q] here?
**A.** 4.58

**Q.** Which protein stability index does the source give for APKKELINIKGISEIKADKILAEA [A15I] here?
**A.** 4.77

**Q.** With APKKELINIKWISEAKADKILAEA [G11W] as the variant, how does the protein stability index read?
**A.** 3.4

**Q.** For APKKELINIKAISEAKADKILAEA [G11A], which protein stability index is on record?
**A.** 5.12

**Q.** For APKKELINIKLISEAKADKILAEA [G11L], which protein stability index is on record?
**A.** 3.69

**Q.** With APKKELINIKVISEAKADKILAEA [G11V] as the variant, how does the protein stability index read?
**A.** 4.37

**Q.** With APKKELINIKSISEAKADKILAEA [G11S] as the variant, how does the protein stability index read?
**A.** 5.46

**Q.** Which protein stability index does the source give for APKKELINIKTISEAKADKILAEA [G11T] here?
**A.** 4.59

**Q.** For APKKELINIKIISEAKADKILAEA [G11I], which protein stability index is on record?
**A.** 3.39

**Q.** With APKKELINIKFISEAKADKILAEA [G11F] as the variant, how does the protein stability index read?
**A.** 3.69

From the supplement of paper PMC10567573
